Experimental data reported in publication PMC8515945 (Microbiology Spectrum, 2021).

Biological target: SARS-CoV-2 spike protein receptor-binding domain (residues 319 to 533), wild type (SARS-CoV-2, UniProt P0DTC2)
Assay: SPR
Conditions: both partners purified

B1: nCoV617 (full-length recombinant human IgG1) (antibody, V domains shown)
VH: QVQLVESGGGVVQPGRSLRLSCAASGFTFSSYAMHWVRQAPGKGLEWVALISYDGSNKYADSVKGRFTISRDNSKNTLYLQMNSLRAEDTAVYYCARGLGLRFLEWPISSYWGQGTLVTVSS
VL: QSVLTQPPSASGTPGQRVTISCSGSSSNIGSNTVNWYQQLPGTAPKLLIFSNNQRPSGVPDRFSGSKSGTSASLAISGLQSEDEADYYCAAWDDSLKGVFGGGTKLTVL
notes: also called MAb nCoV617; NAb nCoV617
- Kd: 4.23 nM
